Source: US20200230057A1, “Pharmaceutical Compositions, Methods for Preparation using Lipid Vesicle Particles of Defined Size, and Uses Thereof” (IMMUNOVACCINE TECHNOLOGIES INC., priority 2017, published 2020)
Values joined by “and” are separate entries in the source; they are usually repeats but may differ in a detail not shown here. Equal entries are not always repeated.

tested on: C57BL/6NCrl mice; assay: IFN-gamma ELISPOT of splenocytes eight days after single vaccination; assay type: in vivo; settings: oil-based composition with 14 neoantigens, single administration, response to the named neoantigen

Row | Sequence | Improvement of immune response over comparative aqueous composition
1 | EFKHIKAFDRTFANNPGPMVVFATPGM (Mut44) [Mut 44] | about 3 fold
2 | STANYNTSHLNNDVWQIFENPVDWKEK (Mut25) [Mut 25] | about 5 fold

tested on: not listed separately; assay: HPLC peptide recovery before and after freeze-drying; settings: not given

Row | Sequence | Amount from non-validated HPLC assay
3 | FRRKAFLHWYTGEAMDEMEFTEAESNM [Mut 20] | 0.41 mg/mL and 0.47 mg/mL and 0.54 mg/mL and 0.42 mg/mL

same assay, conditions: After freeze dry T = 0

Row | Sequence | Amount from non-validated HPLC assay
4 | VVDRNPQFLDPVLAYLMKGLCEKPLAS (Mut17) [Mut 17] | 0.27 mg/mL
5 | SFACLRQPSQGPTVGVKGGAAGGGYAQ (Mut29B) [Mut 29b] | 0.48 mg/mL
6 | GFSQPLRRLVLHVVSAAQAERLARAEE (Mut50) [Mut 50] | 0.42 mg/mL
7 | IPSGTTILNCFHDVLSGKLSGGSPGVP (Mut29A) [Mut 29a] | 0.38 mg/mL
8 | SHCHWNDLAVIPAGVVHNWDFEPRKVS (Mut48) [Mut 48] | 0.38 mg/mL
9 | CGTAFFINFIAIYHHASRAIPFGTMVA (Mut36) [Mut 36] | 0.19 mg/mL
10 | PKPDFSQLQRNILPSNPRVTRFHINWD (Mut22) [Mut 22] | 0.51 mg/mL
11 | EFKHIKAFDRTFANNPGPMVVFATPGM (Mut44) [Mut 44] | 0.47 mg/mL
12 | STANYNTSHLNNDVWQIFENPVDWKEK (Mut25) [Mut 25] | 0.54 mg/mL
13 | NIEGIDKLTQLKKPFLVNNKINKIENI (Mut28) [Mut 28] | 0.50 mg/mL
14 | PSKPSFQEFVDWENVSPELNSTDQPFL (Mut30) [Mut 30] | 0.51 mg/mL
15 | ECRITSNFVIPSEYWVEEKEEKQKLIQ (Mut45) [Mut 45] | 0.44 mg/mL
16 | TAVITPPTTTTKKARVSTPKPATPSTD (Mut24) [Mut 24] | 0.44 mg/mL

same assay, conditions: After freeze dry T = 1M, stored at −20° C.

Row | Sequence | Amount from non-validated HPLC assay
17 | VVDRNPQFLDPVLAYLMKGLCEKPLAS (Mut17) [Mut 17] | 0.23 mg/mL
18 | SFACLRQPSQGPTVGVKGGAAGGGYAQ (Mut29B) [Mut 29b] | 0.44 mg/mL
19 | GFSQPLRRLVLHVVSAAQAERLARAEE (Mut50) [Mut 50] | 0.44 mg/mL
20 | IPSGTTILNCFHDVLSGKLSGGSPGVP (Mut29A) [Mut 29a] | 0.34 mg/mL
21 | SHCHWNDLAVIPAGVVHNWDFEPRKVS (Mut48) [Mut 48] | 0.37 mg/mL
22 | CGTAFFINFIAIYHHASRAIPFGTMVA (Mut36) [Mut 36] | 0.25 mg/mL
23 | PKPDFSQLQRNILPSNPRVTRFHINWD (Mut22) [Mut 22] | 0.47 mg/mL
24 | EFKHIKAFDRTFANNPGPMVVFATPGM (Mut44) [Mut 44] | 0.44 mg/mL
25 | STANYNTSHLNNDVWQIFENPVDWKEK (Mut25) [Mut 25] | 0.50 mg/mL
26 | NIEGIDKLTQLKKPFLVNNKINKIENI (Mut28) [Mut 28] | 0.50 mg/mL
27 | PSKPSFQEFVDWENVSPELNSTDQPFL (Mut30) [Mut 30] | 0.51 mg/mL
28 | ECRITSNFVIPSEYWVEEKEEKQKLIQ (Mut45) [Mut 45] | 0.42 mg/mL
29 | TAVITPPTTTTKKARVSTPKPATPSTD (Mut24) [Mut 24] | 0.38 mg/mL

same assay, conditions: After freeze dry T = 3M, stored at −20° C.

Row | Sequence | Amount from non-validated HPLC assay
30 | VVDRNPQFLDPVLAYLMKGLCEKPLAS (Mut17) [Mut 17] | 0.26 mg/mL
31 | SFACLRQPSQGPTVGVKGGAAGGGYAQ (Mut29B) [Mut 29b] | 0.48 mg/mL
32 | GFSQPLRRLVLHVVSAAQAERLARAEE (Mut50) [Mut 50] | 0.46 mg/mL
33 | IPSGTTILNCFHDVLSGKLSGGSPGVP (Mut29A) [Mut 29a] | 0.35 mg/mL
34 | SHCHWNDLAVIPAGVVHNWDFEPRKVS (Mut48) [Mut 48] | 0.41 mg/mL
35 | CGTAFFINFIAIYHHASRAIPFGTMVA (Mut36) [Mut 36] | 0.31 mg/mL
36 | PKPDFSQLQRNILPSNPRVTRFHINWD (Mut22) [Mut 22] | 0.54 mg/mL
37 | EFKHIKAFDRTFANNPGPMVVFATPGM (Mut44) [Mut 44] | 0.50 mg/mL
38 | STANYNTSHLNNDVWQIFENPVDWKEK (Mut25) [Mut 25] | 0.56 mg/mL
39 | NIEGIDKLTQLKKPFLVNNKINKIENI (Mut28) [Mut 28] | 0.51 mg/mL
40 | PSKPSFQEFVDWENVSPELNSTDQPFL (Mut30) [Mut 30] | 0.56 mg/mL
41 | ECRITSNFVIPSEYWVEEKEEKQKLIQ (Mut45) [Mut 45] | 0.46 mg/mL
42 | TAVITPPTTTTKKARVSTPKPATPSTD (Mut24) [Mut 24] | 0.37 mg/mL

same assay, conditions: Before freeze dry

Row | Sequence | Amount from non-validated HPLC assay
43 | VVDRNPQFLDPVLAYLMKGLCEKPLAS (Mut17) [Mut 17] | 0.51 mg/mL
44 | SFACLRQPSQGPTVGVKGGAAGGGYAQ (Mut29B) [Mut 29b] | 0.56 mg/mL
45 | GFSQPLRRLVLHVVSAAQAERLARAEE (Mut50) [Mut 50] | 0.42 mg/mL
46 | IPSGTTILNCFHDVLSGKLSGGSPGVP (Mut29A) [Mut 29a] | 0.54 mg/mL
47 | SHCHWNDLAVIPAGVVHNWDFEPRKVS (Mut48) [Mut 48] | 0.47 mg/mL
48 | CGTAFFINFIAIYHHASRAIPFGTMVA (Mut36) [Mut 36] | 0.47 mg/mL
49 | PKPDFSQLQRNILPSNPRVTRFHINWD (Mut22) [Mut 22] | 0.54 mg/mL
50 | EFKHIKAFDRTFANNPGPMVVFATPGM (Mut44) [Mut 44] | 0.51 mg/mL
51 | STANYNTSHLNNDVWQIFENPVDWKEK (Mut25) [Mut 25] | 0.56 mg/mL
52 | NIEGIDKLTQLKKPFLVNNKINKIENI (Mut28) [Mut 28] | 0.53 mg/mL
53 | PSKPSFQEFVDWENVSPELNSTDQPFL (Mut30) [Mut 30] | 0.53 mg/mL
54 | ECRITSNFVIPSEYWVEEKEEKQKLIQ (Mut45) [Mut 45] | 0.47 mg/mL
55 | TAVITPPTTTTKKARVSTPKPATPSTD (Mut24) [Mut 24] | 0.56 mg/mL
